These results are taken from US20110059095A1 (Regeneron, published 2011).

Where no end group is shown, it is not given here. The star is where a group is joined. Biotin = O=C1N[C@H]2[C@H](CS[C@H]2CCCCC(=O)*)N1

The target in test [1] is T1, Peptide A (human PAR-2), unbiotinylated (Human).
T1 construct: also called Peptide A No Biotin
T1 peptide: GTNRSSKGRSLIGKVDGT
Put plainly: SPR, antibody captured. Here is the method: (§1) Equilibrium dissociation constants (KD values) for antigen binding to selected purified PAR-2 antibodies were determined by surface kinetics using a real-time surface plasmon resonance biosensor assay. Antibody was captured on either a rabbit anti-mouse IgG polyclonal antibody (GE Healthcare, Piscataway, N.J.) surface or a goat anti-human IgG polyclonal antibody (Jackson Immuno Research Lab, West Grove, Pa.) surface created through direct amine chemical coupling to a BIACORE™ CM5 sensor chip to form a captured antibody surface. […] Antigen-antibody binding and dissociation were monitored in real time at room temperature. Kinetic analysis was performed to calculate KD and half-life of antigen/antibody complex dissociation (Table 10). For those antibodies where no T_{1/2} value is shown, steady state analysis was used to calculate the KD value. NB: no binding observed under current experimental conditions. ND: not determined.

Test [2] concerns the target T2, full length human PAR-2 (human, UniProt P55085 26-397). Put plainly: cell-based or functional assay.
For test [3], the target named is T2, full length human PAR-2. Put plainly: MSD cell binding. An outline of the steps: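 Antibodies, two-fold dilutions from 100 nM to 0.098 nM, bound for 1 h at room temperature to HEK293/D9 cells stably expressing human or mouse PAR-2, detected by sulfo-tagged anti-human IgG electrochemiluminescence. Parental 293/D9 signal was subtracted; EC50 and Bmax came from sigmoidal dose-response fits.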

Test [4] addresses T3, Peptide F (monkey PAR-2), N-terminal biotinylated (Monkey (Macaca mulatta), N-terminal biotin via G4S linker).
T3 construct: also called Peptide F N-Term
Put plainly: SPR, antibody captured. The protocol:
as §1

For test [5], the target named is T1, Peptide A (human PAR-2), unbiotinylated. Put plainly: peptide ELISA titration.
Test [6] deals with T4, Peptide A (human PAR-2), C-terminal biotinylated (Human, C-terminal biotin via G4S linker).
T4 construct: also called Peptide A C-Term
Put plainly: peptide ELISA titration.

For test [7], the target named is T3, Peptide F (monkey PAR-2), N-terminal …. Put plainly: peptide ELISA titration.
In test [8] the target is T5, Peptide A (human PAR-2), N-terminal biotinylated (Human, N-terminal biotin via G4S linker).
T5 construct: also called Peptide A N-Term
T5 peptide: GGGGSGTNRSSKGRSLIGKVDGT
Put plainly: peptide ELISA titration.

For test [9], the target named is T6, Peptide B (human PAR-2), C-terminal biotinylated (Human, not fully specified).
T6 construct: also called Peptide B C-Term
T6 peptide: SLIGKVDGTSHVTGGGGGS-biotin
Put plainly: SPR, peptide immobilized. An outline of the steps: (§2)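 Neutravidin was amine-coupled to a C1 or CM5 chip, and N- or C-terminal biotinylated peptide was captured at low density (<1RU). Purified antibody at 5–100 μg/ml was injected at 50 μl/min for 300 s, with binding and dissociation monitored in real time at 25° C. KD was derived from surface kinetics.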

Test [10] addresses T4, Peptide A (human PAR-2), C-terminal …. Put plainly: SPR, peptide immobilized. An outline of the steps: as §2
Test [11] addresses T7, Peptide B (human PAR-2), N-terminal biotinylated (Human).
T7 construct: also called Peptide B N-Term
T7 peptide: Biotin-GGGGSSLIGKVDGTSHVTG
Put plainly: SPR, peptide immobilized.

In test [12] the target is T3, Peptide F (monkey PAR-2), N-terminal …. Put plainly: SPR, peptide immobilized.
Test [13] addresses T5, Peptide A (human PAR-2), N-terminal …. Put plainly: SPR, peptide immobilized.

T2 sequence (P55085 26-397 G138A limits assumed): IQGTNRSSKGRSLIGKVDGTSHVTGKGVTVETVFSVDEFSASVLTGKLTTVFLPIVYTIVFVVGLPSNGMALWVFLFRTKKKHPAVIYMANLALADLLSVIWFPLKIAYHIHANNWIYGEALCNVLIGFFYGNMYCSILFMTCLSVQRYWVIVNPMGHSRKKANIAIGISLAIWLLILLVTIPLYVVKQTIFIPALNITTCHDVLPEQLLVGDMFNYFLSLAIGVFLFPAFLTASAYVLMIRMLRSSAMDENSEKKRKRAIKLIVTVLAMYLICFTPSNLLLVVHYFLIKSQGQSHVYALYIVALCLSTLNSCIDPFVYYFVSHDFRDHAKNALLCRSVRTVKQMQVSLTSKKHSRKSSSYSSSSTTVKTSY
T3 sequence (peptide, as listed by the source): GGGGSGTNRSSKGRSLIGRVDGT

B1: H4H583P (antibody, human IgG4, V domains shown)
VH: QVQLVESGGGVVQPGMSLRLSCTASGFTFRRYGMHWVRQAPGKGLEWVAVIWYDGSNKYYADSVKGRFTITRDNSKNTLYLQMNSLRAEDTAIYFCASEITIGDWFDPRGQGTLVTVSS
VL: AIQMTQSPSSLSASVGDRVTITCRASQGIRNDLGWFQQKPGKVPKLLIYAASTLHSGVPSRFSGSGFGTDFTLTISSLQPEDFATYYCLQDFNYPLTFGGGTKVEIK
notes: also called H1H583P variable regions
For the molecule B1, the Kd in [1] came out at 37.1 nM; in test [4], 112 nM; in [10], 0.898 nM; in test [12] it was 0.291 nM; in test [13], 0.412 nM. Moreover, the T1/2 was 0.37 min in test [1]; 0.47 min in [4]; 34 min in test [10]; 73 min in test [12]; 46 min in test [13]. In the test with full length human PAR-2 [2], the “IC50, NF-kB-luciferase, 20 nM Trypsin” value turned out to be 14 nM. The Bmax in the test with full length human PAR-2 [3] is 13300 MSD Unit. Further, the EC50 came to 2.12 nM with full length human PAR-2 [3]; 8 pM in test [5]; 0.018 nM in test [6]; 0.013 nM in test [7]; 0.015 nM in [8]. For the same molecule, the binding result in [9] and in test [11] was “no binding” in each case.
